Assay results published in paper PMC7771966, “Quantitative glycoproteomics reveals cellular substrate selectivity of the ER protein quality control sensors UGGT1 and UGGT2” (eLife, 2020).

T1: glutathione S-transferase-calreticulin (GST-CRT) (UniProt P15253 18-418)
T1 construct: calreticulin from the plasmid pGEX-3X-GST-CRT (Baksh and Michalak, 1991; from M. Michalak); also called WT GST-CRT; GST-CRT-WT; source: E. coli BL21, purified (glutathione sepharose)
T1 sequence (looked up): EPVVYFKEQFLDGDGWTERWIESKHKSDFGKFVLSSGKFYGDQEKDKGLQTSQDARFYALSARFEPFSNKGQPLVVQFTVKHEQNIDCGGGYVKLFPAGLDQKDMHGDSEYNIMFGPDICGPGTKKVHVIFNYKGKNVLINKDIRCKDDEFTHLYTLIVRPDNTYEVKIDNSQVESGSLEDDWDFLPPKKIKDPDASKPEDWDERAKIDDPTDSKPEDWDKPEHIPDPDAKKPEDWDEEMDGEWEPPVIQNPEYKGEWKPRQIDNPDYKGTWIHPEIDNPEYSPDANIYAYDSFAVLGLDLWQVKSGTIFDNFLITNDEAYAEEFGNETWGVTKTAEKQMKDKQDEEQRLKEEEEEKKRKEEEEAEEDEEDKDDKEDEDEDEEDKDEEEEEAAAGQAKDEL


Molecular target: T1, glutathione S-transferase-calreticulin …
Assay: pull-down; GST-CRT or GST-CRT-Y109A on glutathione beads, 16 h at 4 C with lysate (MNT: 20 mM MES, 100 mM NaCl, 30 mM Tris pH 7.5, 0.5% Triton X-100, protease inhibitors, 20 mM NEM) of ALG6-/-, ALG6/UGGT1-/- or ALG6/UGGT2-/- HEK293-EBNA1-6E cells treated with 500 uM DNJ for 14 h; immunoblot; percent reglucosylation = (GST-CRT lane minus Y109A lane) / total in whole cell lysate x 100
Conditions: one partner purified

percent reglucosylation (bound by GST-CRT minus GST-CRT-Y109A, of the total in the lysate), ALG6/UGGT2-/- cells [%] | Binder
12 | ectonucleotide pyrophosphatase/phosphodiesterase family member 1 (ENPP1) (enzyme, human (endogenous in HEK293-EBNA1-6E), UniProt P22413 1-925, looked up, monoglucosylated N-glycans (reglucosylated by the UGGTs; sites not stated), ectonucleotide pyrophosphatase/phosphodiesterase family member 1, human, endogenous; source: endogenous, lysate of CRISPR-edited HEK293-EBNA1-6E cells (ALG6-/- background), DNJ treated) MERDGCAGGGSRGGEGGRAPREGPAGNGRDRGRSHAAEAPGDPQAAASLLAPMDVGEEPLEKAARARTAKDPNTYKVLSLVLSVCVLTTILGCIFGLKPSCAKEVKSCKGRCFERTFGNCRCDAACVELGNCCLDYQETCIEPEHIWTCNKFRCGEKRLTRSLCACSDDCKDKGDCCINYSSVCQGEKSWVEEPCESINEPQCPAGFETPPTLLFSLDGFRAEYLHTWGGLLPVISKLKKCGTYTKNMRPVYPTKTFPNHYSIVTGLYPESHGIIDNKMYDPKMNASFSLKSKEKFNPEWYKGEPIWVTAKYQGLKSGTFFWPGSDVEINGIFPDIYKMYNGSVPFEERILAVLQWLQLPKDERPHFYTLYLEEPDSSGHSYGPVSSEVIKALQRVDGMVGMLMDGLKELNLHRCLNLILISDHGMEQGSCKKYIYLNKYLGDVKNIKVIYGPAARLRPSDVPDKYYSFNYEGIARNLSCREPNQHFKPYLKHFLPKRLHFAKSDRIEPLTFYLDPQWQLALNPSERKYCGSGFHGSDNVFSNMQALFVGYGPGFKHGIEADTFENIEVYNLMCDLLNLTPAPNNGTHGSLNHLLKNPVYTPKHPKEVHPLVQCPFTRNPRDNLGCSCNPSILPIEDFQTQFNLTVAEEKIIKHETLPYGRPRVLQKENTICLLSQHQFMSGYSQDILMPLWTSYTVDRNDSFSTEDFSNCLYQDFRIPLSPVHKCSFYKNNTKVSYGFLSPPQLNKNSSGIYSEALLTTNIVPMYQSFQVIWRYFHDTLLRKYAEERNGVNVVSGPVFDFDYDGRCDSLENLRQKRRVIRNQEILIPTHFFIVLTSCKDTSQTPLHCENLDTLAFILPHRTDNSESCVHGKHDSSWVEELLMLHRARITDVEHITGLSFYQQRKEPVSDILKLKTHLPTFSQED
20 | β-hexosaminidase subunit β (HexB), immature ER-localized proHexB (enzyme, human (endogenous in HEK293-EBNA1-6E), UniProt P07686 43-556, looked up, monoglucosylated N-glycans (reglucosylated by the UGGTs; sites not stated), beta-hexosaminidase subunit beta, human, endogenous; the immature or ER-localized pro form, not yet processed into three chains; By immunoblot only proHexB was purified by GST-CRT; source: endogenous, lysate of CRISPR-edited HEK293-EBNA1-6E cells (ALG6-/- background), DNJ treated) ARAPSVSAKPGPALWPLPLLVKMTPNLLHLAPENFYISHSPNSTAGPSCTLLEEAFRRYHGYIFGFYKWHHEPAEFQAKTQVQQLLVSITLQSECDAFPNISSDESYTLLVKEPVAVLKANRVWGALRGLETFSQLVYQDSYGTFTINESTIIDSPRFSHRGILIDTSRHYLPVKIILKTLDAMAFNKFNVLHWHIVDDQSFPYQSITFPELSNKGSYSLSHVYTPNDVRMVIEYARLRGIRVLPEFDTPGHTLSWGKGQKDLLTPCYSRQNKLDSFGPINPTLNTTYSFLTTFFKEISEVFPDQFIHLGGDEVEFKCWESNPKIQDFMRQKGFGTDFKKLESFYIQKVLDIIATINKGSIVWQEVFDDKAKLAPGTIVEVWKDSAYPEELSRVTASGFPVILSAPWYLDLISYGQDWRKYYKVEPLDFGGTQKQKQLFIGGEACLWGEYVDATNLTPRLWPRASAVGERLWSSKDVRDMDDAYDRLTRHRCRMVERGIAAQPLYAGYCNHENM
